Laboratory results as given in publication PMC4156536.

Target: RyR1 with a His10 tag inserted at position 500 (His^500-RyR1) (rabbit) (UniProt P11716)
Assay: FRET or BRET

UniProt P11716, sequence (P11716 whole entry): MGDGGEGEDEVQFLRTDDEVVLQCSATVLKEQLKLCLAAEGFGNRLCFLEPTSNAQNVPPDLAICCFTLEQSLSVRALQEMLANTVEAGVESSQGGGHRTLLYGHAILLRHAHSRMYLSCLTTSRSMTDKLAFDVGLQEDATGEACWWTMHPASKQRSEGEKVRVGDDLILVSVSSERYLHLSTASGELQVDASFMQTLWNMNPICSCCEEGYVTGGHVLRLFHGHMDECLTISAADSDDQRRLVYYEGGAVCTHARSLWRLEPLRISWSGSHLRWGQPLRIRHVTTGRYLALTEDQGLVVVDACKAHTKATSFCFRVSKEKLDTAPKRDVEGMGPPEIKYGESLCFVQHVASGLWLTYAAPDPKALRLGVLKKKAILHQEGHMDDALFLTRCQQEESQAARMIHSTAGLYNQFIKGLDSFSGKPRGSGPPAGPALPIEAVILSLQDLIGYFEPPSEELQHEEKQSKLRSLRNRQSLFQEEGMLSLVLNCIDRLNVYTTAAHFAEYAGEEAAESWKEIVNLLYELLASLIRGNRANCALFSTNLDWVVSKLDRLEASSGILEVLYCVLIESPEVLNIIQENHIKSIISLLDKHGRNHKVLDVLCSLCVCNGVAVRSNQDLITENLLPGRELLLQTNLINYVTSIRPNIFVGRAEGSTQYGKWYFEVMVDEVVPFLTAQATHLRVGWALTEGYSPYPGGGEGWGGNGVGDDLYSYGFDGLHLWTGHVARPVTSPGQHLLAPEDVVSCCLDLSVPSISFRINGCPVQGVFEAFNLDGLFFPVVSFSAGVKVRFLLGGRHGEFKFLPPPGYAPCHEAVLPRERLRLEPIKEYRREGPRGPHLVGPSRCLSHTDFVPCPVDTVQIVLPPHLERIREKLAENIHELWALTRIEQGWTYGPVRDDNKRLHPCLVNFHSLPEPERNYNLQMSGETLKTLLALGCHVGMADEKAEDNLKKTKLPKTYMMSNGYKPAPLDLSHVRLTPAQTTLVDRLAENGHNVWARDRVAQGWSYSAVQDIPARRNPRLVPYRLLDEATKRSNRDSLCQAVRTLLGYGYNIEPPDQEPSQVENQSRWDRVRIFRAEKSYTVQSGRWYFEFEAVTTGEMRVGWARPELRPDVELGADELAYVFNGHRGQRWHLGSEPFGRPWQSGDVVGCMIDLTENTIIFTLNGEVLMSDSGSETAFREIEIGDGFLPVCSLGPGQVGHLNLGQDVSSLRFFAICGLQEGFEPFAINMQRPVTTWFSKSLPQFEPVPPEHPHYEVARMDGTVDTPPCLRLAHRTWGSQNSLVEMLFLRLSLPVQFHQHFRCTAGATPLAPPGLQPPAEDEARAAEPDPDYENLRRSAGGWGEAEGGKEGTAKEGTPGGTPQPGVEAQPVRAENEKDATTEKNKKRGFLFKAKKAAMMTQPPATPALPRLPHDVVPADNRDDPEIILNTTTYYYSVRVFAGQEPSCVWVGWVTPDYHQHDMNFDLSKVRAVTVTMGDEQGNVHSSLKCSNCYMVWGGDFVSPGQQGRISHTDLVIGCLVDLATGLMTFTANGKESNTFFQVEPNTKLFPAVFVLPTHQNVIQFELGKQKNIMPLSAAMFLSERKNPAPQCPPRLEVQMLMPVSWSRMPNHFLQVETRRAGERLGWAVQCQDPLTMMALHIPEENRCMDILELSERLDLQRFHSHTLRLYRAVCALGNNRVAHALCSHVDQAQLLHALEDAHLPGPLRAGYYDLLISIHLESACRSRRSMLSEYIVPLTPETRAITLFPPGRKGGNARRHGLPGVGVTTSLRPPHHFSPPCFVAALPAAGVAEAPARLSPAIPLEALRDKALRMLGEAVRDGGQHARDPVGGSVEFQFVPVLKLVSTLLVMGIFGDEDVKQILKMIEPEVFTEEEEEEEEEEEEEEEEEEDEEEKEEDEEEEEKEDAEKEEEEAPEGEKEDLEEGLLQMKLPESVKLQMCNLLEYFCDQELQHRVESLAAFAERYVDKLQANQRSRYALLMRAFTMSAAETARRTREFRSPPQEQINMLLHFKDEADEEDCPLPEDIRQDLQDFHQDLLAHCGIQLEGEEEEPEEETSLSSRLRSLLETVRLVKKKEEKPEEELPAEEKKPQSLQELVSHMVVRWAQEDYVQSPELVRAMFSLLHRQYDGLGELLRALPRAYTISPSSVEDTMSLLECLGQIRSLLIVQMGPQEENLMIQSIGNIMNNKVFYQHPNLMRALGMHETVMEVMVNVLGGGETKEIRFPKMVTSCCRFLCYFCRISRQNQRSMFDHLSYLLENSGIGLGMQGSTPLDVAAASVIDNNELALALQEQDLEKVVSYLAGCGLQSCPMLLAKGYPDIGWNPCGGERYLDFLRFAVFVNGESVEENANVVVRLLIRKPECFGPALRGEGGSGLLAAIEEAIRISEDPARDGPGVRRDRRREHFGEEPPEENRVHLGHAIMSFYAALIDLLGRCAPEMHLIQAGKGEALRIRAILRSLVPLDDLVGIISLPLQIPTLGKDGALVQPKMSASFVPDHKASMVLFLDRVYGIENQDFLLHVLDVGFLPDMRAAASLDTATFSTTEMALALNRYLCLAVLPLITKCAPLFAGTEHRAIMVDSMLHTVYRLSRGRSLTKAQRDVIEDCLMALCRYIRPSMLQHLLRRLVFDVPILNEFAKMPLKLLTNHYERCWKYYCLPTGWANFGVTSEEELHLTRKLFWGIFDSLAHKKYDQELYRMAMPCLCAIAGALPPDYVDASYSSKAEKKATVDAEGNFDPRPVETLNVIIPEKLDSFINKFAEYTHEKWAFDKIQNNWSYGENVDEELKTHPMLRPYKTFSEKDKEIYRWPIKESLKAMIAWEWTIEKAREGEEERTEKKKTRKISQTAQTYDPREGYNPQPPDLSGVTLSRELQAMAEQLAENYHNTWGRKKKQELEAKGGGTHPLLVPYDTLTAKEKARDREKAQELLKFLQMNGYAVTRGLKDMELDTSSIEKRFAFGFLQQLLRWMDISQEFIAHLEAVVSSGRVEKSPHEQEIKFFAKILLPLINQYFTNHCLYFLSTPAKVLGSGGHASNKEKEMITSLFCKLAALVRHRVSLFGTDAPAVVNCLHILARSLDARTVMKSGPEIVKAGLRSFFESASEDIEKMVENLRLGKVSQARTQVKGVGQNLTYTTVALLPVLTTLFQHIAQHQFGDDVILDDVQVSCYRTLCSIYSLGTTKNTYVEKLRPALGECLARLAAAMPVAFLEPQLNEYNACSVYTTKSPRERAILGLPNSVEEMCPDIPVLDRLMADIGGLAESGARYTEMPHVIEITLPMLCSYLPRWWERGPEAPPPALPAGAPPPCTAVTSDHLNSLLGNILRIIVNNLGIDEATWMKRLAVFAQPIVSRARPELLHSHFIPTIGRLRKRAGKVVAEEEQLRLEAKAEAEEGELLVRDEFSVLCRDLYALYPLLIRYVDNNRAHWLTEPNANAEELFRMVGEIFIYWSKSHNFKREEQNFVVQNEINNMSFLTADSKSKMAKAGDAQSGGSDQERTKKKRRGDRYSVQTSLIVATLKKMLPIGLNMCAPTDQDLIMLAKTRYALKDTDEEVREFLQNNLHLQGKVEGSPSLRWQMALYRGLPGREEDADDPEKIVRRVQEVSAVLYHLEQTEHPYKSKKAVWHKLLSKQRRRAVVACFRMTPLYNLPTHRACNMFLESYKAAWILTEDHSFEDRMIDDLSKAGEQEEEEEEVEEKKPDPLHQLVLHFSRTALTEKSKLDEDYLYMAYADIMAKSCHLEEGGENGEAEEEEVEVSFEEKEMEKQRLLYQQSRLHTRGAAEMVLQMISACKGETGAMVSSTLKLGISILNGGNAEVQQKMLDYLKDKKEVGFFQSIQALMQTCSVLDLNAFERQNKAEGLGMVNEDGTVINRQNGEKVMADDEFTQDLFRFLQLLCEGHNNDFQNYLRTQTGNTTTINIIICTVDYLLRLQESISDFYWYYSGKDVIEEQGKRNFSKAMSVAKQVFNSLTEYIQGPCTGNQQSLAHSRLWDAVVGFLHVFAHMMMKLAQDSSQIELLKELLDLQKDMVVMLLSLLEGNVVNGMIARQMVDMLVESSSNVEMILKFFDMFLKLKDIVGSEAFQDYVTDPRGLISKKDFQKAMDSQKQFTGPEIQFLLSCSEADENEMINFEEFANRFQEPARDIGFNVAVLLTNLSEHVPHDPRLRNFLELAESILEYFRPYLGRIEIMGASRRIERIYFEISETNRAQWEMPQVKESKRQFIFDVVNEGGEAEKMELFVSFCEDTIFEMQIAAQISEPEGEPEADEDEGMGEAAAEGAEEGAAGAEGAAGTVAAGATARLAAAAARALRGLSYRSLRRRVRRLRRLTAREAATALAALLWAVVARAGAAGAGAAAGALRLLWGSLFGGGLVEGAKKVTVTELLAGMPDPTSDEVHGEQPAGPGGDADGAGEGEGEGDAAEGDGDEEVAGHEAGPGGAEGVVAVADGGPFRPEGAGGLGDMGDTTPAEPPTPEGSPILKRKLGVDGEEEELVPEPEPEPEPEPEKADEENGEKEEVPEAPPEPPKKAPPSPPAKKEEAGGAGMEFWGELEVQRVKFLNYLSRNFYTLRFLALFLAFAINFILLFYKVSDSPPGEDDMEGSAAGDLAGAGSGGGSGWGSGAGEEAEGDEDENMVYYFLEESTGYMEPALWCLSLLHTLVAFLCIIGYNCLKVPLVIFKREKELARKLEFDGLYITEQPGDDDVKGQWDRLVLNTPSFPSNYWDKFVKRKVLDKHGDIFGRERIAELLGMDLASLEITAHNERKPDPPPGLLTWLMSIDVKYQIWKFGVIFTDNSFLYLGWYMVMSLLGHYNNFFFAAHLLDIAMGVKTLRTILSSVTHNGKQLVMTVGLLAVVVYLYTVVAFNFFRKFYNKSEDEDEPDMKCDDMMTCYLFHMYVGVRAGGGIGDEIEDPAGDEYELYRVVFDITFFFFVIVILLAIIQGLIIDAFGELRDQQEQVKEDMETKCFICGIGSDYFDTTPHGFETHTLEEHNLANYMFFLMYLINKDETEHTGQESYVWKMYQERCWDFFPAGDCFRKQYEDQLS

FRET efficiency (AF488 on FKBP to Cy3NTA on the His10 tag): 0.18
Substance: FKBP12.6 with AF488 conjugated to amino acid residue 14 (D14-FKBP) (from UniProt P68106 1-108) (natural protein)
